Assay results as given in PMC9314367.

Target: Rubisco large subunit CbbL of Cyanobium sp. PCC 7001 (Cyanobium sp. PCC 7001)
Assay: cryo-EM structure; cryo-electron tomography with subtomogram averaging (emClarity) of Rubisco inside isolated native Cyanobium α-carboxysomes in TEMB buffer; 3.8 Å; all Rubiscos and the three concentric layers averaged separately

“Rubisco large subunit CbbL of Cyanobium sp. PCC 7001 (natural protein)” showed a stoichiometry N of 8.
